# Results as given in the DeepSol protein solubility set.
# Test: soluble on expression in E. coli; label from the status in PepcDB or PDB records
row,Sequence,soluble on expression in E. coli
1,MSLASFPHRNLTWNDINFVHTTDTHGWYSGHINQPLYHANWGDFISFTTHMRRIAHSRNQDLLLIDSGDRHDGNGLSDITSPNGLKSTPIFIKQDYDLLTIGNHELYLWENSKQEYETVVNHFQDKYVCSNVDIRLDNGLFVPLGLKYKYFTTPIRGIRVMAFGFLFDFKRFNSGTRVTPMAETIHEPWFQEALKHEVDLIIIVGHTPISHNWGEFYQVHQYLRQFFPDTIIQYFGGHSHIRDFTVFDSLSTGLQSGRYCETVGWTSVNLDKADLNLPVRQRFSRSYIDFNTDSFKYHTNLDKEFDTAKGKLVSKLIRETRKELKLDTLIGYVKTNYYVDYVPIDHPKSIFNLLALKILKTLPKSKHEERITIINTGSIRYDLYKGPYTIDSKFIVSPFENIWVNITVPKSVATKVAAKLNDADYISASRLKPPHQYDLQVQDLSTSPHQAHFEMQEKLPKGYVTHDDFGADGDDTLHRAVVNFPVPNVIQSVEINDEVDSPVNLVFYSFITPNIIWALKELNFSTEQVPTPYSDIYLGTLLNEFVANNEGHHHHHH,soluble
2,MKTFNAGRNADTEDELWVVEHPPVFTQGLAGKPEHLLIRDDIPVVQIDRGGQITYHGPGQLVVYTMIDFKRRKTSVRNIVSALENSIIATLAEYGIEAAADPKRPGVYVGERKIASLGLRIKNGSVYHGLALNVNMDLSPFTHINPCGYAGMEMTQIADFVQPCPTPDEVAAKLTAHLETQFTPKADNNE,not soluble
3,MAASIELFEQNGFSETSIQDIVDALGVTKGTFYYYFTSKEELLMDIHLRYIERLLDEEERIISDKRRSVQEKLYDIIFMLIHNVERQGREARIFFREMKHLNEEHLQKVKEKRDLFRYRLQSLIEEGMKSGELRCDLSPSIATLTVLGAANWSYQWFRPDGELTDAEVAKQMVEILLDGMSAPSVSKAE,not soluble
4,AHHHHHHGSEKALILAEGRYKTTDGKTAHGLVRYSKRFEIVGVIDSTLAGRDAGEILDGIYRGIPIYGSLEEALAEHPDVKYLIIGVATPGGYLPPLYREIIKKAIKKRINIVNGLHNFLSDDPEFSRLAKRYKVQLIDVRKMYRDLKIPFTGKIKEVRAIKIAVLGTDAAIGKRTTAIMLHEAFERFGKKSVFVAMGQTGWMQGAKYCIVMDSIINDFVVGAIEDVIWRAWKEENPDVIVTHGEGSLLHPAYPGGFELIAAGRPDYIILQHAPARKFFDDFPQYEIPPLEKYIQLIELLSGKKPIAITINSEGLTKEEALQKAREIEETYGILTRVPLYEGVDDIVKAILEEVERIKVTVPQEGAVNASQVL,not soluble
5,MSLIRVAIADDHQTLIDGISLRFDGNESIDLVFSANDGKDFLKQLKITPVDLVITDLKMPKMDGVTLAREIKRDFKNVKVIVLSMFDQPDVINKMVDVDVDGYILKTSSLDELVTAIGEVNKGKKYFDKHLHGITSLFDVNSTSSKTSLSNAEKDILNLIAEGKTSQEIANERACAVSTIHTHRRNMAHKLELYGKGELLRYAMDKKYNFEEGHHHHHH,soluble
6,MAHHHHHHMSWRARFTPCVGSLTVWLNPKDPNCFGVRNWWRNNLPELQLLNPFCTFTIQELSFGEPHMYVNYTPTDQRMIRLAGATEEECEEIMEACITYGMNHAIIERPRTDDGGDLVNQPAITSFGYTESFTAKLEVAPPADIGQKTTEGVDDPGQKPRLYPRNVGCKLMP,not soluble
7,MIINLVKQLGTTRGYITLWTGIDSAIAALAVQGIASHRTQQYIDEYYPNIGGPLLNQDKEEDELTDAESFRRVIRNGFRDSVIRVVAVTAARPFAVCFARQVAQVIGNETKYTTCAQALAVIGKQEGPGGLFSGLAPQIVGELLVIWGVHLITHGIQRAILRIEFGDTKNKDETKAKAAKDVHKFIHTAVPFLVNSFGYPYSVVSTVMAVAGSGLAVSFLPYSPSFNNWHGAWDYLRPIGLKRGNRLFLREQVGAVTVGVDQQLYASNSYFA,not soluble
8,MGSDKIHHHHHHMVRPQRNKKRFILILNGVWNLEVTSKDRPIAVPGSWNEQYQDLCYEEGPFTYKTTFYVPKELSQKHIRLYFAAVNTDCEVFLNGEKVGENHIEYLPFEVDVTGKVKSGENELRVVVENRLKVGGFPSKVPDSGTHTVGFFGSFPPANFDFFPYGGIIRPVLIEFTDHARILDIWVDTSESEPEKKLGKVKVKIEVSEEAVGQEMTIKLGEEEKKIRTSNRFVEGEFILENARFWSLEDPYLYPLKVELEKDEYTLDIGIRTISWDEKRLYLNGKPVFLKGFGKHEEFPVLGQGTFYPLMIKDFNLLKWINANSFRTSHYPYSEEWLDLADRLGILVIDEAPHVGITRYHYNPETQKIAEDNIRRMIDRHKNHPSVIMWSVANEPESNHPDAEGFFKALYETANEMDRTRPVVMVSMMDAPDERTRDVALKYFDIVCVNRYYGWYIYQGRIEEGLQALEKDIEELYARHRKPIFVTEFGADAIAGIHYDPPQMFSEEYQAELVEKTIRLLLKKDYIIGTHVWAFADFKTPQNVRRPILNHKGVFTRDRQPKLVAHVLRRLWSEV,not soluble
9,MPDPQGGEIVYVGGTLLDLNRYELYYQFDFTAKYEITEEDTRQAEDVNALPDLSLLSIDVDYIDPGTGPDGDIEHHLEMRFPQN,not soluble
10,MGSDKIHHHHHHMTSETVLEIRNVSKHFGAVKALTAVDFRLARGEVHALCGENGAGKSTLMNVIAGVLQPSEGEVLIEGAPVKIASPAVAQSLGIALVHQEIALCPDATIAENMFMAATNRRRSALMNYAQLERDAQAVMNRLAPIDVSQKVGDLPISSQQLVEIAKALTLDCRVLIFDEPTAALTETEAQVLFGIIRDLKARGISIIYISHRMAEVFSLCDRVTVFRDGRYVATEMVSDVTPDDVVRLMVGREISQLYPDKQPSSERLGEPILSVRDLGGERFRDVSFELRYGEILGVGGLIGSGRTEIAEGICALRPVTQGEIRLHDKVLRLRRYSDAAKAGVVYLSEDRKGSGVFLDLSIAQNIAALDLKALTSLGLLNSREERALAEDLTRRLGVRMGGVDMPVSSLSGGNQQKVAIAKQLAVDPKVILMDEPTRGIDVGAKSEIHRLLRELARAGIGILVISSELPELIGLCDRVLVVREGRIAGEVSGNEMTEEVIMRLASGIGPATETNLKASGHAA,not soluble
11,MAHHHHHHMGTLEAQTQGPGSMSFFLTTPAAIDLGVNIDHVATLRNARGTAYPDPVRAALAAEDAGADAITLHLREDRRHIVDADVRTLRPRVKTRMNLECAVTPEMLDIACEIRPHDACLVPEKRSELTTEGGLDVVGHFDAVRAACKQLADAGVRVSLFIDPDEAQIRAAHETGAPVIELHTGRYADAHDAAEQQREFERIATGVDAGIALGLKVNAGHGLHYTNVQAIAALPGIAELNIGHAIVAHAVFVGWDNAVREMKAIMVAARVAALHGGR,soluble
12,SLTTSTALVLDINNANLDQQQAFAITAANRDEILQAASSIRLGDVMSVHDFGRSATDASYLDTMLEDVKVIDQKESGKQLNEIAFLSRQISDSVQPSDLQRVISRIPIIGFVISRLTFMQRRALNRFDSVKGQMDILADGISSISTGYLEQNVKLDAMYNDVLADIRAQGINIVASKLVIDSIEGELQTRQEEFKKNKTNTLLSIEINDIQYQLDTLKKRRKDMISMQQKSFDDLTMLRMMQQNNLALVDKFRSVEELTLPAAKRGHLIVDALEKQNAGVKLIEAIDDATNALALRQAELVKDNTIRIAKQSHRSVYDAKTLDRISTLMNEAIAEAHAIHKSNSDGHLALEKRAIEWQEERRQRLINGMGKNKLSNH,not soluble
13,AVNEENIMIPKGVEVYEITGPYFFGIATKFEETMAQLGDRPNVRIIRMRKVPFIDSTGIHNLTTLCEMSQKEKITVILSGVNEKVYKVLEKSGFYELLGKENICPNFKIALDRAEEV,not soluble
14,MPVLVFGAVNVHDGDTVAVVHQEESANATAFLDFLRLLKERHPNRMIALVLDNARIHHARMVKDFLREEGQCFHFLYLPPYSPQLNPIERLWKWLKDTVITNAFHKDRHEILQAVQRLIHYIPKRPEDVLRRLECAV,not soluble
15,ADTRIGVTIYKYDDNFMSVVRKAIEKDGKSAPDVQLLMNDSQNDQSKQNDQIDVLLAKGVKALAINLVDPAAAGTVIEKARGQNVPVVFFNKEPSRKALDSYDKAYYVGTDSKESGVIQGDLIAKHWQANQGWDLNKDGKIQYVLLKGEPGHPDAEARTTYVVKELNDKGIQTEQLALDTAMWDTAQAKDKMDAWLSGPNANKIEVVIANNDAMAMGAVEALKAHNKSSIPVFGVDALPEALALVKSGAMAGTVLNDANNQAKATFDLAKNLAEGKGAADGTSWKIENKIVRVPYVGVDKDNLSEFTQK,soluble
16,GSSHHHHHHSSGLVPRGSHMSVQNVVLFDTQPLTLMLGGKLSYINVAYQTYGTLNDEKNNAVLICHALTGDAEPYFDDGRDGWWQNFMGAGLALDTDRYFFISSNVLGGCKGTTGPSSINPQTGKPYGSQFPNIVVQDIVKVQKALLEHLGISHLKAIIGGSFGGMQANQWAIDYPDFMDNIVNLCSSIYFSAEAIGFNHVMRQAVINDPNFNGGDYYEGTPPDQGLSIARMLGMLTYRTDLQLAKAFGRATKSDGSFWGDYFQVESYLSYQGKKFLERFDANSYLHLLRALDMYDPSLGYENVKEALSRIKARYTLVSVTTDQLFKPIDLYKSKQLLEQSGVDLHFYEFPSDYGHDAFLVDYDQFEKRIRDGLAGN,soluble
17,MMDAMTDPITFAATAAGRDAAHPLRDISFGEIGIATERKPDGTIYVRSTTTLTDYPVRITDRLHHFAETAPDRVFMAERNGEGGWRRISYAEMLRAAQTIASALIARGLSAERPVMILSGNSIDHAMVMFGALYAGVAMCPVSPPYSLVSKDYGKLRHIVGLLTPGLIFADDITAFAPAILATVPEDVELAATRGEVKGRKVTSLAELLATPEHPELAAKHEAIGHDTIAKFLLTSGSTGNPKAVINTQRMICANQVMIREAMAFLKDEPPVIVDWLPWNHTFGGNHNIGLTLFNGGSMYIDDGKPTPAGIASTIRNLREIAPTVYFNVPKGYESLLPVLREDQQLRKLFFSRLHAMFFSGASLAAHVWNGLDEVAVAETGARVPMLTGLGATETAPFFMSVTPQTSRSGHVGLPVPGNEAKLVPNNGKLEVRAKGPNITPGYWRAPELTDKAFDEEGFYKLNDALKPVDANDLSRGFDFDGRISEDFKLASGTWVSVGPLRAKFIAACASLVRDVVIAGLDRDYVTALAILDPDGCKLINATLPLEDLAGMAADHLIREAFRERFATLLTQATGSSNRVTRAVLLGEPLSIDKGEITDKGSVNQRAVLEYRASLIADLYADPPPAHVIALELEHHHHHH,soluble
18,METKQKERIRRLMELLKKTDRIHLKDAARMLEVSVMTIRRDLSQDDDPLPLTLLGGYIVMVNKPASSTNMPLPAKKTHHRDDLPVAILAAGLVRENDLVFFDNGPEMPLVISMIPDDITFTGICYSHRVFIALNEKPNATAILCGGTYRAKSDAFYDANNPSALDSLNPRKVFISASGVHEHFGVSWFNPDDLAAKRKAMERGLRKILLARHALFDEVAPASIGPLSAFDVLISDRPLPTDYAVHCRNGSVKVITPDSESE,not soluble
